B1: full-length p115–GFP (wild type) [human] / endogenous Sec16A (HEK293T) [human (endogenous in HEK293T)] (parent complex)
chain 1: MNFLRGVMGGQSAGPQHTEAETIQKLCDRVASSTLLDDRRNAVRALKSLSKKYRLEVGIQAMEHLIHVLQTDRSDSEIIGYALDTLYNIISNEEEEEVEENSTRQSEDLGSQFTEIFIKQQENVTLLLSLLEEFDFHVRWPGVKLLTSLLKQLGPQVQQIILVSPMGVSRLMDLLADSREVIRNDGVLLLQALTRSNGAIQKIVAFENAFERLLDIISEEGNSDGGIVVEDCLILLQNLLKNNNSNQNFFKEGSYIQRMKPWFEVGDENSGWSAQKVTNLHLMLQLVRVLVSPTNPPGATSSCQKAMFQCGLLQQLCTILMATGVPADILTETINTVSEVIRGCQVNQDYFASVNAPSNPPRPAIVVLLMSMVNERQPFVLRCAVLYCFQCFLYKNQKGQGEIVSTLLPSTIDATGNSVSAGQLLCGGLFSTDSLSNWCAAVALAHALQENATQKEQLLRVQLATSIGNPPVSLLQQCTNILSQGSKIQTRVGLLMLLCTWLSNCPIAVTHFLHNSANVPFLTGQIAENLGEEEQLVQGLCALLLGISIYFNDNSLESYMKEKLKQLIEKRIGKENFIEKLGFISKHELYSRASQKPQPNFPSPEYMIFDHEFTKLVKELEGVITKAIYKSSEEDKKEEEVKKTLEQHDNIVTHYKNMIREQDLQLEELRQQVSTLKCQNEQLQTAVTQQVSQIQQHKDQYNLLKIQLGKDNQHQGSYSEGAQMNGIQPEEIGRLREEIEELKRNQELLQSQLTEKDSMIENMKSSQTSGTNEQSSAIVSARDSEQVAELKQELATLKSQLNSQSVEITKLQTEKQELLQKTEAFAKSVEVQGETETIIATKTTDVEGRLSALLQETKELKNEIKALSEERTAIKEQLDSSNSTIAILQTEKDKLELEITDSKKEQDDLLVLLADQDQKILSLKNKLKDLGHPVEEEDELESGDQEDEDDESEDPGKDLDHI
chain 2: MQPPPQTVPSGMAGPPPAGNPRSVFWASSPYRRRANNNAAVAPTTCPLQPVTDPFAFSRQALQSTPLGSSSKSSPPVLQGPAPAGFSQHPGLLVPHTHARDSSQGPCEPLPGPLTQPRAHASPFSGALTPSAPPGPEMNRSAEVGPSSEPEVQTLPYLPHYIPGVDPETSHGGHPHGNMPGLDRPLSRQNPHDGVVTPAASPSLPQPGLQMPGQWGPVQGGPQPSGQHRSPCPEGPVPSGVPCATSVPHFPTPSILHQGPGHEQHSPLVAPPAALPSDGRDEVSHLQSGSHLANNSDPESTFRQNPRIVNHWASPELRQNPGVKNEHRPASALVNPLARGDSPENRTHHPLGAGAGSGCAPLEADSGASGALAMFFQGGETENEENLSSEKAGLSGQADFDDFCSSPGLGRPPAPTHVGAGSLCQALLPGPSNEAAGDVWGDTASTGVPDASGSQYENVENLEFVQNQEVLPSEPLNLDPSSPSDQFRYGPLPGPAVPRHGAVCHTGAPDATLHTVHPDSVSSSYSSRSHGRLSGSARPQELVGTFIQQEVGKPEDEASGSFFKQIDSSPVGGETDETTVSQNYRGSVSQPSTPSPPKPTGIFQTSANSSFEPVKSHLVGVKPFEADRANVVGEVRETCVRQKQCRPAAALPDASPGNLEQPPDNMETLCAPQVCPLPLNSTTEAVHMLPHAGAPPLDTVYPAPEKRPSARTQGPVKCESPATTLWAQSELPDFGGNVLLAPAAPALYVCAKPQPPVVQPPEEAMSGQQSRNPSSAAPVQSRGGIGASENLENPPKMGEEEALQSQASSGYASLLSSPPTESLQNPPVLIAQPDHSYNLAQPINFSVSLSNSHEKNQSWREALVGDRPAVSSWALGGDSGENTSLSGIPTSSVLSLSLPSSVAQSNFPQGSGASEMVSNQPANLLVQPPSQPVPENLVPESQKDRKAGSALPGFANSPAGSTSVVLVPPAHGTLVPDGNKANHSSHQEDTYGALDFTLSRTLENPVNVYNPSHSDSLASQQSVASHPRQSGPGAPNLDRFYQQVTKDAQGQPGLERAQQELVPPQQQASPPQLPKAMFSELSNPESLPAQGQAQNSAQSPASLVLVDAGQQLPPRPPQSSSVSLVSSGSGQAAVPSEQPWPQPVPALAPGPPPQDLAAYYYYRPLYDAYQPQYSLPYPPEPGAASLYYQDVYSLYEPRYRPYDGAASAYAQNYRYPEPERPSSRASHSSERPPPRQGYPEGYYSSKSGWSSQSDYYASYYSSQYDYGDPGHWDRYHYSARVRDPRTYDRRYWCDAEYDAYRREHSAFGDRPEKRDNNWRYDPRFTGSFDDDPDPHRDPYGEEVDRRSVHSEHSARSLHSAHSLASRRSSLSSHSHQSQIYRSHNVAAGSYEAPLPPGSFHGDFAYGTYRSNFSSGPGFPEYGYPADTVWPAMEQVSSRPTSPEKFSVPHVCARFGPGGQLIKVIPNLPSEGQPALVEVHSMEALLQHTSEQEEMRAFPGPLAKDDTHKVDVINFAQNKAMKCLQNENLIDKESASLLWNFIVLLCRQNGTVVGTDIAELLLRDHRTVWLPGKSPNEANLIDFTNEAVEQVEEEESGEAQLSFLTGGPAAAASSLERETERFRELLLYGRKKDALESAMKNGLWGHALLLASKMDSRTHARVMTRFANSLPINDPLQTVYQLMSGRMPAASTCCGDEKWGDWRPHLAMVLSNLNNNMDVESRTMATMGDTLASRGLLDAAHFCYLMAQAGFGVYTKKTTKLVLIGSNHSLPFLKFATNEAIQRTEAYEYAQSLGAETCPLPSFQVFKFIYSCRLAEMGLATQAFHYCEAIAKSILTQPHLYSPVLISQLVQMASQLRLFDPQLKEKPEEESLAAPTWLVHLQQVERQIKEGAGVWHQDGALPQQCPGTPSSEMEQLDRPGLSQPGALGIANPLLAVPAPSPEHSSPSVRLLPSAPQTLPDGPLASPARVPMFPVPLPPGPLEPGPGCVTPGPALGFLEPSGPGLPPGVPPLQERRHLLQEARSPDPGIVPQEAPVGNSLSELSEENFDGKFANLTPSRTVPDSEAPPGWDRADSGPTQPPLSLSPAPETKRPGQAAKKETKEPKKGESWFFRWLPGKKKTEAYLPDDKNKSIVWDEKKNQWVNLNEPEEEKKAPPPPPTSMPKTVQAAPPALPGPPGAPVNMYSRRAAGTRARYVDVLNPSGTQRSEPALAPADFVAPLAPLPIPSNLFVPTPDAEEPQLPDGTGREGPAAARGLANPEPAPEPKVLSSAASLPGSELPSSRPEGSQGGELSRCSSMSSLSREVSQHFNQAPGDLPAAGGPPSGAMPFYNPAQLAQACATSGSSRLGRIGQRKHLVLN
B2: full-length p115–GFP (wild type) [human] / Sec13 [human (endogenous in HEK293T)] (parent complex)
chain 1: B1 chain 1
chain 2: MVSVINTVDTSHEDMIHDAQMDYYGTRLATCSSDRSVKIFDVRNGGQILIADLRGHEGPVWQVAWAHPMYGNILASCSYDRKVIIWREENGTWEKSHEHAGHDSSVNSVCWAPHDYGLILACGSSDGAISLLTYTGEGQWEVKKINNAHTIGCNAVSWAPAVVPGSLIDHPSGQKPNYIKRFASGGCDNLIKLWKEEEDGQWKEEQKLEAHSDWVRDVAWAPSIGLPTSTIASCSQDGRVFIWTCDDASSNTWSPKLLHKFNDVVWHVSWSITANILAVSGGDNKVTLWKESVDGQWVCISDVNKGQGSVSASVTEGQQNEQ

Variants of: B1
Experiment: co-precipitation with p115–GFP, volcano plot of protein enrichment; HEK293T cells; means of biological triplicates; read off a plot
In the case of chain 1 Q462D, the screen value is reported as ~6.1.

Variants of: B2
Experiment: as above
Work on chain 1 Q462D yielded a screen value of ~5.8.
